Consider 1 molecule from paper doi:10.1101/2025.04.07.647595, “Real-time tracking of mRNP complex assembly reveals various mechanisms that synergistically enhance translation repression”.

The data set addresses T1, Sxl-dRBD5 (UniProt P19339 122-305).
T1 sequence: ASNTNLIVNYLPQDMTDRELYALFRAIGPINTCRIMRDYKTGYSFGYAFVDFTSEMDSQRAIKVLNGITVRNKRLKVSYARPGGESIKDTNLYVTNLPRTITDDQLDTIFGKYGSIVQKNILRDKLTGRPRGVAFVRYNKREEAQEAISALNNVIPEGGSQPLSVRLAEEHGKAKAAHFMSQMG
As to the kind of experiment: NMR; BMRB 52948; C-terminal helix forms on RNA binding; FP: 10 mM Tris/HCl pH 7.5, 20 mM KCl, 25 mM NaCl, 0.005% NP-40; ITC: 50 mM Tris/HCl pH 7.5, 50 or 150 mM KCl, 298 K; smFRET: 50 mM salt at 21 C, or 150 mM at 29 C for Hrp48 assays. The conditions noted are these: protein: recombinant; tags: His6-Trx-TEV removed.

B1: U10-mer RNA (ssRNA)
RNA: UUUUUUUUUU
For the molecule B1, the binding result is given as “binds”.
